In paper PMC10983988:

T1: m-TREX1 (Three Prime Repair Exonuclease 1, catalytic domain) (mouse, UniProt Q91XB0 1-242)
T1 sequence: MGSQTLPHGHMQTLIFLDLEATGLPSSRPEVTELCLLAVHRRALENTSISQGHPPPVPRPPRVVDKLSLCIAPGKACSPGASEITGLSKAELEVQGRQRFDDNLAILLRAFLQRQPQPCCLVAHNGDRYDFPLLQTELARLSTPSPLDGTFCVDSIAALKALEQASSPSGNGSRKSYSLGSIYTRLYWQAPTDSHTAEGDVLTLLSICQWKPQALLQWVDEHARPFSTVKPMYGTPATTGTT

B1: U3 unprocessed (dsDNA)
DNA 1: AGTGAATTAGCCCTTCCAGT
DNA 2: ACTGGAAGGGCTAATTCACT
B2: U3 3'-processed (dsDNA)
DNA 1: AGTGAATTAGCCCTTCCA
DNA 2: ACTGGAAGGGCTAATTCACT

Molecular target: T1, m-TREX1 (Three Prime Repair Exonuclease …)
Assay: fluorescence polarization anisotropy

Row | Binder | Kd
1 | B1 | 118 ± 8.4 nM
2 | B2 | 216 ± 4.6 nM
